Measured values reported in article PMC11332825, “Residues in the fructose-binding pocket are required for ketohexokinase-A activity” (The Journal of Biological Chemistry, 2024).
Substitutions are numbered along the chain they refer to. Names may count otherwise.

B1: human ketohexokinase-A (KHK-A), wild type (enzyme)
chain: QILCVGLVVLDVISLVDKYPKEDSEIRCLSQRWQRGGNASNSCTVLSLLGAPCAFMGSMAPGHVADFVLDDLRRYSVDLRYTVFQTTGSVPIATVIINEASGSRTILYYDRSLPDVSATDFEKVDLTQFKWIHIEGRNASEQVKMLQRIDAHNTRQPPEQKIRVSVEVEKPREELFQLFGYGDVVFVSKDVAKHLGFQSAEEALRGLYGRVRKGAVLVCAWAEEGADALGPDGKLLHSDAFPPPRVVDTLGAGDTFNASVIFSLSQGRSVQEALRFGCQVAGKKCGLQGFDGIV
notes: ketohexokinase, splice isozyme A (KHK-A), human; good electron density for residues 3 to 298; theoretical molecular weight of the monomer printed as 34.65 kDa; Cloned into pET-28b(+) by GenScript; also called WT KHK-A; WT; source: E. coli BL21-CodonPlus-RIL, purified (Ni-NTA, Superdex 200 gel filtration)
B2: human ketohexokinase-A N42K (enzyme)
chain: B1 chain with N38K
notes: ketohexokinase, splice isozyme A (KHK-A), human, with N42K; Expressed and purified as described for WT KHK-A; PDB 2HLZ is the wild-type parent; source: E. coli BL21-CodonPlus-RIL, purified (Ni-NTA, Superdex 200 gel filtration)
B3: human ketohexokinase-A K174A (enzyme)
chain: B1 chain with K170A
notes: ketohexokinase, splice isozyme A (KHK-A), human, with K174A; Expressed and purified as described for WT KHK-A; PDB 2HLZ is the wild-type parent; source: E. coli BL21-CodonPlus-RIL, purified (Ni-NTA, Superdex 200 gel filtration)
B4: human ketohexokinase-A D15A (enzyme)
chain: B1 chain with D11A
notes: ketohexokinase, splice isozyme A (KHK-A), human, with D15A; Expressed and purified as described for WT KHK-A; PDB 2HLZ is the wild-type parent; also called KHK-A D15A; source: E. coli BL21-CodonPlus-RIL, purified (Ni-NTA, Superdex 200 gel filtration)
B5: human ketohexokinase-A N45A (enzyme)
chain: B1 chain with N41A
notes: ketohexokinase, splice isozyme A (KHK-A), human, with N45A; Expressed and purified as described for WT KHK-A; PDB 2HLZ is the wild-type parent; source: E. coli BL21-CodonPlus-RIL, purified (Ni-NTA, Superdex 200 gel filtration)
B6: human ketohexokinase-A R141E/K174A double mutant (enzyme)
chain: B1 chain with R137E, K170A
notes: ketohexokinase, splice isozyme A (KHK-A), human, with R141E and K174A; Expressed and purified as described for WT KHK-A; PDB 2HLZ is the wild-type parent; source: E. coli BL21-CodonPlus-RIL, purified (Ni-NTA, Superdex 200 gel filtration)
B7: human ketohexokinase-A R141E (enzyme)
chain: B1 chain with R137E
notes: ketohexokinase, splice isozyme A (KHK-A), human, with R141E; Results and legends print R141E; the abstract and the discussion speak of R141A / alanine at R141; PDB 2HLZ is the wild-type parent; source: E. coli BL21-CodonPlus-RIL, purified (Ni-NTA, Superdex 200 gel filtration)
B8: human ketohexokinase-A N42A (enzyme)
chain: B1 chain with N38A
notes: ketohexokinase, splice isozyme A (KHK-A), human, with N42A; Expressed and purified as described for WT KHK-A; PDB 2HLZ is the wild-type parent; also called KHK-A N42A; source: E. coli BL21-CodonPlus-RIL, purified (Ni-NTA, Superdex 200 gel filtration)

Target: the molecule itself
Experiment: mass photometry; 100 nM protein diluted in PBS (pH 7.4), room temperature, 60 s acquisition, TwoMP mass photometer; monomer to dimer

Protein | stoichiometry N
B1 | 2
B2 | 2
B3 | 2
B4 | 2
B5 | 2
B6 | 2
B7 | 2
B8 | 2
